From US20160280744A1 come the findings set out here.

The target of assay [1] is human IgG (Oriental Yeast Co., ltd) (human). Kind of assay: pH gradient affinity chromatography, bound at pH 7.2, gradient 20 mM citric acid pH 6.0 to pH 2.4 over 80 min.
The target is the same in assay [2]. Kind of assay: affinity column (1 ml carrier with immobilised protein), human IgG 1 mg/ml at pH 7.2, 10% breakthrough, flow rate 0.4 mL/min.
Assay [3] shares this target. As to the kind of experiment: affinity column (1 ml carrier with immobilised protein), human IgG 1 mg/ml at pH 7.2, 10% breakthrough, flow rate 1.0 mL/min.

B1: tandem-type tetramer PG, rPG-A4 (CGB19H-4D) (designed binder)
chain: MAYYDPETGTWYSGGRDTYKLILNGKTLKGETTTEAVDAATAEKVFKHYANEHGVHGHWTYDPETKTFTVTERPEVIDASELTPAVDTYKLILNGKTLKGETTTEAVDAATAEKVFKHYANEHGVHGHWTYDPETKTFTVTERPEVIDASELTPAVDTYKLILNGKTLKGETTTEAVDAATAEKVFKHYANEHGVHGHWTYDPETKTFTVTERPEVIDASELTPAVDTYKLILNGKTLKGETTTEAVDAATAEKVFKHYANEHGVHGHWTYDPETKTFTVTERPEVIDASELTPAVGGGGSGGGGSGGGGSGGGGCHHHHHH
Molecule B1 showed a pH at the peak of the elution of human IgG in assay [1] of 4.4 pH. Besides, the dynamic binding capacity (DBC) in assay [2] was 12.3 mg; in assay [3], 5.3 mg.
